Data on two molecules can be found in patent US6699683B1, “Active site of human gamma glutamy hydrolase” (Health Research Incorporated, priority 1996, dated 2004).

Assay type in all cases: biochemical
The subject of series [1] is human gamma glutamyl hydrolase (hGH). The experiment in a line: hGH activity assay with 4-NH2-10-CH3PteGlu2 as substrate (Km, Vmax, specific activity) of E. coli-expressed purified proteins. The method, then: (§1) Mutant plasmids were used to transform E. colistrain BL21(DE3)pLysS to kanamycin resistance. Cultures (20 ml) were grown for 16 hours at 37° C., 225 rpm in tryptone-phosphate broth (Moore et al. 1993), containing 30 μg/ml kanamycin and 34 μg/ml chloramphenicol. An aliquot (6 ml) of this culture was used to inoculate 500 ml of the same medium. Cultures were incubated at 27° C., 225 rpm until the OD600nm was 0.5-0.6. Isopropyl β-D-thiogalactoside (IPTG) was added to a final concentration of 1 mM and cultures were incubated for a further 3 hours. Cells were harvested by centrifugation and stored at −80° C. Cells from 1 liter of broth were resuspended in 50 ml of 50 mM Tris/HCl pH 7.5 buffer containing 500 mM NaCl and Complete protease inhibitor cocktail (Boehringer Mannheim, Indianapolis, Ind.). The mixture was sonicated and clarified by centrifugation at 20,000 g for 30 minutes at 4° C. A 20-60% ammonium sulfate precipitate was resuspended in 50 mM sodium acetate, pH 5.8, 1 mM octyl-β-D-glucoside (OBG) and 5% glycerol (buffer A). After dialysis at 4° C. against buffer A and clarification by centrifugation at 30,000 g, 4° C. for 120 minutes, the dialysate was applied in two aliquots to a Protein Pak SP colummn (1.0 cm×10 cm, Waters Division of Millipore Corp., Milford, Mass.) equilibrated in buffer A. The protein was eluted (1 ml/min) with a linear gradient in buffer A of 0 to 1M NaCl over 60 minutes. Fractions were assayed for hGH activity or for hGH protein by Western blot. Fractions containing hGH were pooled and frozen at −80° C. Wildtype hGH and the C19A, C110A, and C290A mutants eluted as two peaks whereas the C124A mutant eluted as a single peak coincident with the first peak for the other hGH proteins. […] There was 8-10 times more hGH protein in peak 1 than in peak 2. A statistically significant amount (40-82%) of enzyme activity of proteins purified on the SP column was lost when stored either at 4° C. or at −80° C. Thawed aliquots of peak 1 were incubated for 2 hours at 4° C. with 2 ml of pHMB agarose (0.8 μmole/ml agarose) (Sigma Chemical, St. Louis, Mo.) equilibrated in 50 mM sodium acetate pH 5.8, 20 mM OBG, 500 mM NaCl (buffer B). The matrix was poured into a column (0.75 cm×4.5 cm) and washed with buffer B. hGH protein was eluted with buffer B containing additionally 10 mM dithiothreitol and 50 mM β-mercaptoethanol. EDTA (1 mM final) was added to each fraction to inhibit remaining proteases. Fractions containing hGH were pooled and stored at −80° C.
(§2) Km and Vmax activities were measured using variable 4-NH2-10-CH3PteGlu2 substrate concentrations. Specific activities were measured using 200 μM 4-NH2-10-CH3PteGlu2 for 5 minutes.

Series [2] deals with T1, human gamma glutamyl hydrolase (hGH) (Homo sapiens, UniProt Q92820, C134A).
T1 construct: A cDNA encoding the 294 amino acid mature form of hGH protein with an N-terminal methionine preceding the first arginine residue; added N-terminal methionine (start codon) (N); made in house; host or cells: E. coli BL21(DE3)pLysS, pET-24a (pET-hGH)
T1 sequence (Q92820 with tags, fused parts or gaps C134A): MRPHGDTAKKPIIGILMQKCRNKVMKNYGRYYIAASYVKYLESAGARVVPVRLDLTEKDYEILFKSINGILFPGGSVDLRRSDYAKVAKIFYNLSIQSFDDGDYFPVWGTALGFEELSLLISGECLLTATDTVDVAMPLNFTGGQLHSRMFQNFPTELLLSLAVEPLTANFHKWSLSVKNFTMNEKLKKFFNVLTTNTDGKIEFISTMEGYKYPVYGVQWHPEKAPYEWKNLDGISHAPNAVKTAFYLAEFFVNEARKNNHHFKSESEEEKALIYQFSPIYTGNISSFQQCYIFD
The series is described as above. To be noted: assayed with either 4-NH2-10-CH3PteGlu2 or the better substrate 4-NH2-10-CH3PteGlu. The method, then: as §1, §2

Series [3] has as its system human gamma glutamyl hydrolase (hGH). The experiment in a line: Activity of baculovirus-expressed hGH mutants on methotrexate polyglutamates. To be noted: mutants expressed in the baculovirus system. From the text: This model for the active site of hGH has been tested by preparing the Cys110Ala, His220Ala, Glu222Ala, His171Ala, and His171Asn mutants of hGH. The mutants were expressed in the baculovirus system used for active hGH to facilitate the rapid expression and purification of the proteins. The mutant proteins were characterized for activity on methotrexate polyglutamates. […] The role of His171 in hGH has been examined by preparing the mutant His171Ala and the more conservative mutation His171Asn.

The target of series [4] is T2, human gamma glutamyl hydrolase (hGH) (Homo sapiens, UniProt Q92820, C134A).
T2 construct: A cDNA encoding the 294 amino acid mature form of hGH protein with an N-terminal methionine preceding the first arginine residue; added N-terminal methionine (start codon) (N); made in house; host or cells: E. coli BL21(DE3)pLysS, pET-24a (pET-hGH)
T2 sequence (Q92820 25-318 C134A): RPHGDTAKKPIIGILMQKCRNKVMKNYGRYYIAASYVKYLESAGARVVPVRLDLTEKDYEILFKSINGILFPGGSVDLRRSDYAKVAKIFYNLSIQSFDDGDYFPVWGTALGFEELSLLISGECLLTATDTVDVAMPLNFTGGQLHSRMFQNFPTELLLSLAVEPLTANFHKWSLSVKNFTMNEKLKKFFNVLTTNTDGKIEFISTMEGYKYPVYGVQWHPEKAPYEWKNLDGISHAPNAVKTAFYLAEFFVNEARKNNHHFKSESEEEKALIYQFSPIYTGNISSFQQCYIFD
The experiment in a line: hGH activity in chromatography fractions measured with 4-NH2-10-CH3PteGlu5. To be noted: substrate 4-NH2-10-CH3PteGlu5. The method, then: Mutant plasmids were used to transform E. colistrain BL21(DE3)pLysS to kanamycin resistance. Cultures (20 ml) were grown for 16 hours at 37° C., 225 rpm in tryptone-phosphate broth (Moore et al. 1993), containing 30 μg/ml kanamycin and 34 μg/ml chloramphenicol. An aliquot (6 ml) of this culture was used to inoculate 500 ml of the same medium. Cultures were incubated at 27° C., 225 rpm until the OD600nm was 0.5-0.6. Isopropyl β-D-thiogalactoside (IPTG) was added to a final concentration of 1 mM and cultures were incubated for a further 3 hours. Cells were harvested by centrifugation and stored at −80° C. Cells from 1 liter of broth were resuspended in 50 ml of 50 mM Tris/HCl pH 7.5 buffer containing 500 mM NaCl and Complete protease inhibitor cocktail (Boehringer Mannheim, Indianapolis, Ind.). The mixture was sonicated and clarified by centrifugation at 20,000 g for 30 minutes at 4° C. A 20-60% ammonium sulfate precipitate was resuspended in 50 mM sodium acetate, pH 5.8, 1 mM octyl-β-D-glucoside (OBG) and 5% glycerol (buffer A). […]

Series [5] deals with T3, human gamma glutamyl hydrolase (hGH) (Homo sapiens, UniProt Q92820, H195A).
T3 construct: A cDNA encoding the 294 amino acid mature form of hGH protein with an N-terminal methionine preceding the first arginine residue; added N-terminal methionine (start codon) (N); made in house; host or cells: E. coli
T3 sequence (Q92820 25-318 H195A): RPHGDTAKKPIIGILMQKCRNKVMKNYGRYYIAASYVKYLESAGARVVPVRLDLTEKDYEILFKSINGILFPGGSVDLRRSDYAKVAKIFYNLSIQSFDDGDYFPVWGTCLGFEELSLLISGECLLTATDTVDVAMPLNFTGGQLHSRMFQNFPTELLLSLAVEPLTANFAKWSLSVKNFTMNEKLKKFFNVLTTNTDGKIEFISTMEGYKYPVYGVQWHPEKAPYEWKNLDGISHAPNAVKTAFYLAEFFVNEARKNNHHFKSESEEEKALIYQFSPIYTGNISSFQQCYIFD
Briefly: Activity of His 171 to Ala hGH mutant from E. coli expression system. From the text: CPS contains two domains and catalyzes the synthesis of carbamoyl phosphate from bicarbonate, glutamine, and two molecules of MgATP. The smaller subunit is the site of glutamine hydrolysis to produce ammonia for deliver to the larger subunit. In agreement with the site directed mutagenesis study described above, the model predicts that Cys110 in hGH is analogous to Cys 269 in CPS, which functions as the active site nucleophile attacking the γ-carbonyl of glutamine to form a glutamyl thioester intermediate (Thoden et al. 1998). The model also predicts that His 220 and Glu 222 in hGH are the other two amino acids in the catalytic triad, corresponding to His 353 and Glu 355 in CPS. His 220 and Glu 222 are conserved in the human, rat and mouse glutamyl hydrolase sequences. In the proposed model for hGH, His 220 would activate Cys 110 and Glu 222 would stabilize the resulting positively charged imidizolium cation. […] His 312 in CPS points away from the catalytic triad and is involved in substrate binding not catalysis. When His 312 in CPS was conservatively mutated to Asn, the Km for the substrate was increased 200-fold (Miran et al. 1991). […] Further reinforcing evidence for this alignment model was obtained by running the Pfam HMM search program (Sonnhammer et al. 1998). The Pfam result has an E-value of 0.13 with the GATase model of class-I glutamine amidotransferases. […]

B1: C110A: hGH variant with cysteine 110 replaced by alanine (protein)
chain: RPHGDTAKKPIIGILMQKCRNKVMKNYGRYYIAASYVKYLESAGARVVPVRLDLTEKDYEILFKSINGILFPGGSVDLRRSDYAKVAKIFYNLSIQSFDDGDYFPVWGTALGFEELSLLISGECLLTATDTVDVAMPLNFTGGQLHSRMFQNFPTELLLSLAVEPLTANFHKWSLSVKNFTMNEKLKKFFNVLTTNTDGKIEFISTMEGYKYPVYGVQWHPEKAPYEWKNLDGISHAPNAVNPAFYLAEFFVNEARKKNHHFKSESEEEKALIYQFSPIYTGNISSFQQCYIFD
As for B1, the “Specific activity (nmol 4-NH2-10-CH3PteGlu2 hydrolyzed/min/mg protein)” value in series [1] (200 μM 4-NH2-10-CH3PteGlu2 for 5 minutes, mean ± SD of 3 experiments) was “no activity”. Also, in series [1] (purified E. coli-expressed proteins), the “hGH activity (in words)” value is listed as “no activity”. Besides, the “Activity relative to wildtype enzyme” value in series [2] was “less than 0.01 % of wildtype enzyme”. Also, the “Activity on methotrexate polyglutamates” value in series [3] is “inactive”. Further, the “hGH activity in SP cation exchange column fractions” value in series [4] is “no fractions contained hGH activity”.

B2: His171Ala: hGH mutant with His 171 changed to Ala (protein)
chain: RPHGDTAKKPIIGILMQKCRNKVMKNYGRYYIAASYVKYLESAGARVVPVRLDLTEKDYEILFKSINGILFPGGSVDLRRSDYAKVAKIFYNLSIQSFDDGDYFPVWGTCLGFEELSLLISGECLLTATDTVDVAMPLNFTGGQLHSRMFQNFPTELLLSLAVEPLTANFAKWSLSVKNFTMNEKLKKFFNVLTTNTDGKIEFISTMEGYKYPVYGVQWHPEKAPYEWKNLDGISHAPNAVNPAFYLAEFFVNEARKKNHHFKSESEEEKALIYQFSPIYTGNISSFQQCYIFD
As to B2, in series [5], the “hGH activity (in words)” value is recorded as “lack of activity”. Besides, the “Activity on methotrexate tetraglutamate” value in series [3] is “inactive”.
